Each block holds one binder with its values, some of them ahead of it.
Assays:
[1] = target: T1, human tissue factor pathway inhibitor (TFPI) (human, UniProt P10646 29-304, limits assumed); experiment: ELISA on coated human TFPI
T1 construct: Bought protein; also called human TFPI; hTFPI
T1 sequence (looked up): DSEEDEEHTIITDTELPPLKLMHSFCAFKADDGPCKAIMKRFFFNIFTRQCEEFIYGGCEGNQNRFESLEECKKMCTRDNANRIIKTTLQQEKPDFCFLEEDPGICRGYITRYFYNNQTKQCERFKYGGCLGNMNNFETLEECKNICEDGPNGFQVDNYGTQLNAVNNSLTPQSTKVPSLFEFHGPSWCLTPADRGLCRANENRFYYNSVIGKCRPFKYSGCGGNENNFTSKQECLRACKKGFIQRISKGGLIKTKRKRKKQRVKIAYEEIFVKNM

[2] = target: T2, mouse tissue factor pathway inhibitor (TFPI) (mouse, UniProt O54819 29-289, limits assumed); experiment: ELISA on coated mouse TFPI
T2 construct: Bought protein; also called mouse TFPI; mTFPI
T2 sequence (looked up): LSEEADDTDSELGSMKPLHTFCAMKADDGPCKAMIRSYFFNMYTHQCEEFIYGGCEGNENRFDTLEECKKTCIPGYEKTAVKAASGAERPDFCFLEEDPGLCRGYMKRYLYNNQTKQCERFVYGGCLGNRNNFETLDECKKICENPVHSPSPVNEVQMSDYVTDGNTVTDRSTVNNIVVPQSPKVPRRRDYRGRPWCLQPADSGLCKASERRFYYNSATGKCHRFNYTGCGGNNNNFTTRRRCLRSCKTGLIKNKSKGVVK

[3] = target: T1, human tissue factor pathway inhibitor …; experiment: ELISA on coated human TFPI, IgG against Fab
[4] = target: T2, mouse tissue factor pathway inhibitor …; experiment: ELISA on coated mouse TFPI, IgG against Fab
[5] = target: T1, human tissue factor pathway inhibitor …; experiment: ELISA, Fab from bacterial lysate on coated human TFPI

EC50 [1]: 0.48 nM | EC50 [2]: 5.18 nM
B1: TP-2G6 (Fab, V domains shown)
VH: QVQLQQSGPGLVKPSQTLSLTCAISGDSVSSSSAAWSWIRQSPGRGLEWLGIIYYRSKWYNDYAVSVKSRITINPDTSKNQFSLQLNSVTPEDTAVYYCARHSMVGFDVWGQGTLVTVSS
VL: DIVLTQSPATLSLSPGERATLSCRASQYVTSSYLAWYQQKPGQAPRLLIYGSSRATGVPARFSGSGSGTDFTLTISSLEPEDFATYYCQQYSSSPITFGQGTKVEIKR
notes: Human Fab (HuCAL Gold, E. coli TG1); also called 2G6-Fab

EC50 [1]: 0.22 nM | EC50 [2]: 0.51 nM | fold improvement of EC50 against 2G6-Fab [3]: 2 fold | fold improvement of EC50 against 2G6-Fab [4]: 10 fold
B2: 2G6-IgG (antibody, V domains shown)
VH: B1 VH
VL: B1 VL
notes: Chimeric IgG: variable regions of TP-2G6 on mouse IgG1 constant regions, expressed in HKB11 cells; also called IgG-2G6; TP-2G6 after conversion to IgG

binding result [5]: binds
B3: TP-4B7 (Fab, V domains shown)
VH: QVQLQQSGPGLVKPSQTLSLTCAISGDSVSSNSAAWSWIRQSPGRGLEWLGIIYKRSKWYNDYAVSVKSRITINPDTSKNQFSLQLNSVTPEDTAVYYCARWHSDKHWGFDYWGQGTLVTVSS
VL: DIVMTQSPLSLPVTPGEPASISCRSSQSLVFSDGNTYLNWYLQKPGQSPQLLIYKGSNRASGVPDRFSGSGSGTDFTLKISRVEAEDVGVYYCQQYDSYPLTFGQGTKVEIKR
notes: Human Fab (HuCAL Gold, E. coli TG1)

binding result [5]: binds
B4: TP-2A8 (Fab, V domains shown)
VH: QVQLVESGGGLVQPGGSLRLSCAASGFTFRSYGMSWVRQAPGKGLEWVSSIRGSSSSTYYADSVKGRFTISRDNSKNTLYLQMNSLRAEDTAVYYCARKYRYWFDYWGQGTLVTVSS
VL: DIELTQPPSVSVAPGQTARISCSGDNLRNYYAHWYQQKPGQAPVVVIYYDNNRPSGIPERFSGSNSGNTATLTISGTQAEDEADYYCQSWDDGVPVFGGGTKLTVLG
notes: Human Fab (HuCAL Gold, E. coli TG1); also called Fab-2A8; TP-2A8-Fab
